Reference: the DeepSol protein solubility set

test: soluble on expression in E. coli; label from the status in PepcDB or PDB records

Sequence	soluble on expression in E. coli
MRLRHLSDPDSLPALDKSFAIERPALGLAPDAPPVRILLLYGSLRARSFSRLAVEEAARLLQFFGAETRIFDPSDLPLPDQVQSDDHPAVKELRALSEWSEGQVWCSPERHGQITSVMKAQIDHLPLEMAGIRPTQGRTLAVMQVSGGSQSFNAVNTLRLLGRWMRMFTIPNQSSIAKAFQEFDAAGRMKPSPYYDRIADVMEELVRFTALVRPHREALTDRYSERKAAGHVIDEATDLSSIAIAPQPLPESETS	soluble
MRLSEAWAERKKNLSCQRGGHGAIITSITSFSEDFMTTMPAAEPVDAAERRAISPVVVYPNGTLEAPDLARLVQAKNGMEKIDEVIIPPRGGRTFTVPKGHFFRIVSIEGPQVGDLNLWNAHDLNERFFSGKTRALHATHVSVGNRLWSNLPSLRPMATITHDTLSWYGFDEDGGGVHDVIGTRCDPYTNKLLSGGDYHHCCHSNLTNALASARGLSFREAEPHVHDVLNVFMCTGFTRDTHQYFMKASPVRPGDYLELFAEIDLIGALSACPGGDCSATHSSDMAACYPLKVEIFRPDMAVLVGWPWPDRNAYRPVELEHHHHHH	not soluble
MRLSILLLVAAHVANGLFGFGEKKTTQAPKISLGSEISIPHTDEDQDTGEIVIPFNDPSTTTTRRRTATTTGIPVISVGGIGLDRTRSTVDVRSFTTTINPRFTAATKRLPSSDRHSSSGCPNRIDAYTFGPDSDYAFYEQQVFKISNNRISDRTTLVEEFKDGPNQVNGALYDPEREILWLVDGRSVYGYKKDGSDNWKLQSVFPKELPSSIGFTPEAAVRWHNKHQLLLSNGGKFALYDEYWNKSLMTGRTESYFENLPDRVRGISTWNSQGHAHIYTQSLVFEYDSEMKKVTGDGVPLGDFWRC	not soluble
MRLSISLGESPCISSLKVRGFTASPQTPNLSISVIVTAFNRREYLRYALLSLKNQEADSFEVVVSKNFSDRVTDKFCSENGFINVTTDSSRSGERVYDALRSSHGDFILFLDDDDIFRRTKISRVSDVISKRNVAFYRNAIFPVTVDGVIATHYQPQMHDPLYLILERVSDVRLLHRHACDFNSSSMGISRSMLDSHASDLRKINLAVDTFYFALAASSRMPLFCDSMIESIYRIMPSSTSRDLRDFYLFSRFERSFLRRYVPDLERIAEIVEGSPAKPVIGRMLSLYKILQYVFEEDRVNLKPSPLDRVRFLLERPFPYSLLYSRIFRDAAMRSEFRRENRIVYGNADRRRRLEHHHHHH	soluble
MRLWVLTLVQAHFAILAVADTTVAVEETTKAANETTTPDGPHADCFLCAPTVQCGETVEGDYSSGEVNVLLMKPMEDNDYFIVKGEVFPNAMKIFIDIYKDLSVGKAQEGGNNQPRLLTFEHYFDTNLTFSRSNLHGEGVPDSFREATLPDAIKQKKPWTLMFKMKDGLSAFETGDETGWFNNDIPWNGTATTQSFNIRGGWKTTSIQ	not soluble
MRMEAGEAAPPAGAGGRATGGWGKWVRLNVGGTVFLTTRQTLCREQKSFLSRLCQGEELQSDRDETGAYLIDRDPTYFGPILNFLRHGKLVLDKDMAEEGVLEEAEFYNIGPLIRIIKDRMEEKDYTVTQVPPKHVYRVLQCQEEELTQMVSTMSDGWRFEQLVNIGSSYNYGSEDQAEFLCVVSKELHSTPNGLSSESSRKTKSTEEQLEEQQQQEEEVEEVEVEQVQVEADAQEKGAANPQEDDC	soluble
MRMVDIISKKRDGKALSTEEIQFFIDGYTNGEIPDYQASALAMAIFFQDMNDQERADLTMAMVGSGDTIDLSEIEGIKVDKHSTGGVGDTTTLVLAPLVAAVGVPVAKMSGRGLGHTGGTIDKLESIEGFHIELDKKDFIDLVNRDKVAVIGQSGNLTPADKKMYALRDVTGTVNSIPLIASSIMSKKIAAGADAIVLDVKTGAGAFMKTDEDAENLAHAMVRIGNNVGRNTMAVISDMSQPLGEAIGNALEVKEAIDTLKGQGPEDLTELVLVLGSQMVVLAKQAETLDEARAKLIEVIENGAALEKFKTFLSNQGGDASIVDHPEKLPQAKYQIEVPAKTSGFVSQIVADEIGIAAMILGAGRATKEDEINLAVGLMLRKKVGDAVKEGESLVTIFADQEDVENVKAKIYENIQISDHAIAPTLVHKVITE	not soluble
MRNICFVACMLFCLTSAVGKTPGNTRYLSIADSILSNVLNLYQTNDGLLTETYPVNPDQKITYLAGGTQQNGTLKASFLWPYSGMMSGCVALYKATGNKKYKKILEKRILPGMEQYWDNSRLPACYQSYPTKYGQHGRYYDDNIWIALDYCDYYQLTHKPASLEKAVALYQYIYSGWSDEIGGGIFWCEQQKEAKHTCSNAPSTVLGVKLYRLTKDAKYLEKAKETYAWTKKHLCDPTDHLYWDNINLKGKVSKEKYAYNSGQMIQAGVLLYEETGDEQYLRDAQQTAAGTDAFFRTKADKKDPTVKVHKDMAWFNVILFRGLKALYKIDKNPAYVNAMVENALHAWENYRDENGLLGRDWSGHNKEQYKWLLDNACLIEFFAEIAAALEHHHHHH	not soluble
MRNPKQTRGKQTKSKIINAAFELFSEKGYTGTSSNEIASRAEVAIGSFYSYFKDKKQLFIEVLKDYYDNISKISFSNINGTISNLDDFLYESIKIALKAHEYHPEFHREVNIMELADDDIKKLIVGYEKVKFDSFKKLVEPYKNEFKNLNFNEALFLIYTTIENTVHVITFSTDTNLNKETLIKELISMIKSYINA	not soluble
MRPCRTGREQMTDTTMQLLSQGTDHVKVPDFDILAEGKTLSGVAERLMSLSLTDNRGFEADQLTITLDDADGQLQLPPRGARLTVLIGWKGEPLTEKGTCRFNLSMQHPFQLSLSVF	not soluble
MRPPPFPKPAHPEEALALQRALAKKVRLAGSLEGVRRIAALDASHKRGRPLVAVALLYDLEKGPLHVATALLPEEALFPYVPGLLSFREAPAYLEALAALPEAPEALLVDGQGVAHPRGLGIASHLGVHLDLPSVGVAKRLLYGRPEAPLPEEKGAAVRLLAPDGRPLGYVYRSRTGVKPLYVSPGHRVGLEEALRFVRRLPTRFRLPEPLRLAHLEAGRALKALDAAALEHHHHHH	not soluble
MRPSAPNIWIWKVSNLASDPRETVSGEWYAARSNLSSAARLRHGGTLLLVLDAKDNHVITKAEIKAVEISHRVGTIPREIHFPDGSLFETSDNEGVDRLLGLYLPKRAGFVHRLEQFRPRLIGITAAAVLLAYGTYKLALPAVVELAVAMTPPIVPKIMSASTMQALDQTVFSASELPLEEQNAIRVQFSRIAAHAEGSPEDYKLNFRKGGYIGPNAFALPDGTLVLTDELVELAGGDRQMIIGVLAHEIGHVEYEHSLRQLYRAAGVAGLVMLIAGDVGSAMEDILTQGGGLLALSHSRDAERQADQRSVELMRKADLDPTAIERFFALLEEKLGDKGGTSIISTHPGTPQRRKAIIDYNASLDNKPAGNLEHHHHHH	not soluble
MRQIFPGLDPNTYVQHPLHSSERMWPETNCYIDLWIEVLASKGLSPEAMFGFTLTQDFEGDQFTFFKVPLEDLEALYGVRATELAIFDKVEDHIATQLERGRICLIEMDSFYMPDTHGVGYQKEHGKTTVAINRLDLEKRELDYFHNAGFFHLSGEDFDGLFQHHLAETDPPFLPYTEFAKFADSNPSPAHIRKTAERLLKFHFSRRPSANPVRAFAKVFPAQVEKVADRPFGFFHKYAFNTLRQLGANFELAASHLEWLDKQGFSDARDHALKISEVAKTVQFQLARAVTRRKFDALATVLDPAADAWDGLMESLGEKLSDASEAA	soluble
MRQPEDGNIRLWRYMDFSKFVALISSKSLFLNRVDRFTDPYEGHFSSLNNRLRNSIYEAKYAGSEIDPHKVASAIFDFNSFSRQWTYVNCWHANKYESAAMWDLYAKTEEAIAIETDYNSLAAVLPSEAQLGFVEYIDFDTEWMPENNATYPYLHKRKSFEHEKEVRIIVQEIPRAKSGVGFDREAVNDKHGISLDIDLNQLIKSIHVSPTAPKWLVDLTDTVSKTFGIDAHVKQSDLYKAPIK	soluble
MRRAILWFVALAIASVLAQQSRPASDPQVVEAARKEGRLIIYSSTDQSSAQALLDDFRKLYPFIQIEYNDLGTQAIYDRFVSETAAGASSADLLWSSAMELQVKLASEGYALPYDSPEAKNWPANARLGNLAYSTTLEPAVVVYNKRFLKPEEVPTTREGLARLLQEPRMRGRVATWDPERSAVGFTILKADYDRFPAFQELARAFGKAQAALYSSTGAAFEKVISGEHYLAYGFFGSYALLRQRTVKDLGIAYLTDGTVAIQRVAFINKRAAHPNAAKLFLDYLLSLRGQNLMAYTALIFARRETVVGEATPQALYKAVGGKDKVYAIPVSTEILKNLDPAERMRFLTFWRQAVRGQ	soluble
MRRARIQIKPNISKAAKQEPPPEPAPVVEETLPQAPVVAEPRILENVETMTNQVSLTVASESMKSLHVDTSKNHHVHFTDDVIDNEQNRIQETPDIVMISPTSQQNAQFASPNPPARLTPRSRNVSMCEDEAILQPKQPRDKKRFSGREELDTKTWKMSDLTRWNPKNEMTRFKRERRSSTSSSVITKSEIGDLDAPPAPRINAPQVKIGADGRLVIDETSLVVHSAQINHESVWETVEEGRMGAKITSMSFRKRGFGKSSFWSEKETDLFYEVLQCTGQDFGLMSHYLPKRTRPELKAKYNREEKINWARVLNAISHPVRLDGNLEVRISKLMTEMEEEAQEKKAKGEYEKAEEKRIREQNRLQKATERNQAKELVKQAKELERDARNAAKLNMKADKEARAQEKSETRQLEKTALKEARLMATEAKRIAMEARAIIKESRKLEKSKKADSVQSDSHNLEREAERIIRRLLQESQREDRRTAHFNKNDKPAAPKSTEEATTSEVSAPTKSPAPVVVTIDASEGELGDTSTDAADSSSASSSDDDALRKDAARREKQRMKEARRNLKPRKTVADKKPVYVDTTDPKYAQQKVSRAVEMVLKANGNMFDSAGEQDDDFPDPDEMETSAEPVVVEEVAPDPTPPPPENMEENVVEESVPQSVIDVVEEIMRGRSKTPVETAVKPLENTEESKTDGEDRKKRSADVDSGGPSPKVARLEGVDVPVEDSTEVATSSTVTSSSAPSSSSSTTVAPAIKPSTAPKPAIASARRTVKKPNTWSKKK	not soluble
MRRCCGDLAASRGGCEPASRNLTRTRLTFAALGRINRPAEHDREDAMTRQEARDHEPRDQDAALSRRTLVRGLALGAAATMAGPALAQTGPAAPPTTITTPPRDFGPNGAPTTYFWDPDIIAVDPSFDDLAQPNTAIKRLYTGVLWAEGPAWSAQGRYLLWSDIPNNRQMRWSEDDGRISVFRSPSNNSNGNSFDFQGRQLSCEHLTRRVTRYEHDGTATVLCDNYNGKKLNSPNDVVAHPDGSYWFTDPPYGGQLYEGEPDAAGGPSNSGGKLNPRIGQPAGFTPGKRELPTNCYRIDPSGRVDLVVTEEQVPDPNGLCFSPDFKKLYVVSTGKGPGDSGPGGKGEIFVFDVGADNKLSNQKRFSDCTIDGVKCGPDGVRCDVNGNVWASSNAGRAVGYSGVTVWSPEGKLLGRIRLPEVCGNICFGGPKRNRLFMAASQSLYAVFTATQGAGPGLEHHHHHH	soluble
MRRLLWLLTLGALAVALTACPRKAEEEAATETAPAEETSLPGANVRVGLAFDAGGKFDRSFNQSAWEGAQRAAQELGVQIFDFEPADPSQVGQGIRTFAEEGFDLVIGVGFANEPAITATAKEFPNVKFAVIDAVPGEGQLPNALGVVFREHEGSFLVGYVAGKLSRTGVVGFIGGMDIPLIHKFEAGFRAGAEYAFQEDGIQGRVLVGYVGNTPAAWNDPAKAKEIASSQARQGADIIYAAAGGSGLGLIDFVKEEMCLREGGAVRFVREDRFADVPKYPAYEEKCGEGTTPLFFIGVDANQNYLGDTDNDPTTLNHGLTSMVKRVDVAVYDTIKSVVDGTFQGGVKDLGLAEEGVGYALDEYNQALIPEEVKARLEELKQAIINGEIQVPETR	soluble
